In patent US20040110663A1:

Target: Sonic hedgehog (Shh), human, as secreted by human cancer cell lines in co-culture (human)
Assay: cell-based or functional assay

inhibition of luciferase expression in S12 cells (gli-Luc assay, S12/RT-4 co-cultures): 85 ng/mL
inhibition of luciferase expression in S12 cells (gli-Luc assay, S12/RT-4 co-cultures), IC90: 0.5 µg/mL
Substance: Shh blocking antibody 5E1
